In PMC9482650, “Quantitative fragmentomics allow affinity mapping of interactomes” (Nature Communications, 2022):

T1: DFNB31_1, Q9P202
T1 sequence (Q9P202 135-233, limits assumed, looked up): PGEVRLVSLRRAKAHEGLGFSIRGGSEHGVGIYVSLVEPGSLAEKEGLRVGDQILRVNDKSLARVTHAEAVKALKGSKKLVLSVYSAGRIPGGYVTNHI

T2: HTRA3, P83110
T2 sequence (P83110 354-453, limits assumed, looked up): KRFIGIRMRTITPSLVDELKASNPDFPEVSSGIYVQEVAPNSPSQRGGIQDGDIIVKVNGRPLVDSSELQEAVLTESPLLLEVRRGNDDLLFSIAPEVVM

T3: TJP3_3, O95049
T3 sequence (O95049 375-456, limits assumed, looked up): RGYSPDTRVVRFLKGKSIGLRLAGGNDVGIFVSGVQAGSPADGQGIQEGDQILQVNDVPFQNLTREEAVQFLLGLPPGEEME

T4: ARHGAP21, Q5T5U3
T4 sequence (Q5T5U3 45-169, limits assumed, looked up): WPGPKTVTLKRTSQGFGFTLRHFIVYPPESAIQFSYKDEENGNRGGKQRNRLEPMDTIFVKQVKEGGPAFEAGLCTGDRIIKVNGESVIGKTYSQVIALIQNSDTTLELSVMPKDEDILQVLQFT

T5: APBA2_2, Q99767
T5 sequence (Q99767 654-744, limits assumed, looked up): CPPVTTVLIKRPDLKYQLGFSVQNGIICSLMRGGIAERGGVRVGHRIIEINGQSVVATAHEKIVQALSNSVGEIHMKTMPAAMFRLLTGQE

T6: DFNB31_3, Q9P202
T6 sequence (Q9P202 811-907, limits assumed, looked up): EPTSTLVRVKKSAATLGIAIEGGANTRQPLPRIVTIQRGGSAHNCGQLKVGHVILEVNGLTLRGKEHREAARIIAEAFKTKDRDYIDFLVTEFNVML

T7: RAPGEF6, Q8TEU7
T7 sequence (Q8TEU7 525-625, limits assumed, looked up): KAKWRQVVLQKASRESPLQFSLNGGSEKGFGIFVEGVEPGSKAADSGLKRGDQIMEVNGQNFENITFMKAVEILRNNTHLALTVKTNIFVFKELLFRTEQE

T8: MPDZ_12, O75970
T8 sequence (O75970 1857-1958, limits assumed, looked up): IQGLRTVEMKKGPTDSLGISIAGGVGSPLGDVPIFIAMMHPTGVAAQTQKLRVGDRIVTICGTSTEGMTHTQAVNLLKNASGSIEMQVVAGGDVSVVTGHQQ

T9: LNX2_2, Q8N448
T9 sequence (Q8N448 334-432, limits assumed, looked up): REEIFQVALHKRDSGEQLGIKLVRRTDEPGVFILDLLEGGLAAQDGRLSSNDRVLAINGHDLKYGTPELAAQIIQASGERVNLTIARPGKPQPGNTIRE

T10: SNTG1, Q9NSN8
T10 sequence (Q9NSN8 52-150, limits assumed, looked up): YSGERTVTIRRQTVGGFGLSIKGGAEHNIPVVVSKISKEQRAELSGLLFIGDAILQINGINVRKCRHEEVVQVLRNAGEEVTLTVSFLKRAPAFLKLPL

T11: SNTB1, Q13884
T11 sequence (Q13884 107-205, limits assumed, looked up): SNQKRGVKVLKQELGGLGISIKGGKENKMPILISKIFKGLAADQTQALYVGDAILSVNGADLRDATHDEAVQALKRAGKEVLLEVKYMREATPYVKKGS

T12: DFNB31_2, Q9P202
T12 sequence (Q9P202 274-371, limits assumed, looked up): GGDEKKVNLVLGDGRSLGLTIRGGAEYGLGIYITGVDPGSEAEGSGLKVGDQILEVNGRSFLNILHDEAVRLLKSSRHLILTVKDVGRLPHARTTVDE

T13: CARD11, Q9BXL7
T13 sequence (Q9BXL7 662-765, limits assumed, looked up): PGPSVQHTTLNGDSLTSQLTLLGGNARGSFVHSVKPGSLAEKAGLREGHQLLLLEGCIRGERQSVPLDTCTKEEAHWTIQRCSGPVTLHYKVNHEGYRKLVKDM


These binders were tested against T1, DFNB31_1, Q9P202 (assay: holdup assay). Details: plain residues with an end cap or a label only (N-terminal biotin on a linker: ado-ado).
Set-up: key: below the threshold = too weak to quantify, mostly under pKd 3.1 to 4

Row | Binder | pKd
1 | LKVPPEERLI [CRB2, Q5IJ48] | below the threshold

These binders were tested against Inadl_10, Q8NI35 (assay: holdup assay). Details: plain residues with an end cap or a label only (N-terminal biotin on a linker: ado-ado).
Set-up: key: below the threshold = too weak to quantify, mostly under pKd 3.1 to 4

Sequence of Inadl_10, Q8NI35 (Q8NI35 1673-1763): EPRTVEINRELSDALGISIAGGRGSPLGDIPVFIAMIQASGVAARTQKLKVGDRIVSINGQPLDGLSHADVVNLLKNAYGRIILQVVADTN

Row | Binder | pKd
2 | LKVPPEERLI [CRB2, Q5IJ48] | below the threshold

What follows are binders tested against T2, HTRA3, P83110 (assay: holdup assay). Details: plain residues with an end cap or a label only (N-terminal biotin on a linker: ado-ado).
Set-up: key: below the threshold = too weak to quantify, mostly under pKd 3.1 to 4

Row | Binder | pKd
3 | LKVPPEERLI [CRB2, Q5IJ48] | below the threshold

The binders below were run against NOS1, P29475 (assay: holdup assay). Details: plain residues with an end cap or a label only (N-terminal biotin on a linker: ado-ado).
Set-up: key: below the threshold = too weak to quantify, mostly under pKd 3.1 to 4

Sequence of NOS1, P29475 (P29475 9-101): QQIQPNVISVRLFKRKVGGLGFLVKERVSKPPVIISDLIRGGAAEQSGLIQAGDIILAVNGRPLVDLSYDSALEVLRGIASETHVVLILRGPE

Row | Binder | pKd
4 | LKVPPEERLI [CRB2, Q5IJ48] | below the threshold

Each binder was assayed against T3, TJP3_3, O95049 (assay: holdup assay). Details: plain residues with an end cap or a label only (N-terminal biotin on a linker: ado-ado).
Set-up: key: below the threshold = too weak to quantify, mostly under pKd 3.1 to 4

Row | Binder | pKd
5 | LKVPPEERLI [CRB2, Q5IJ48] | below the threshold

These binders were tested against T4, ARHGAP21, Q5T5U3 (assay: holdup assay). Details: plain residues with an end cap or a label only (N-terminal biotin on a linker: ado-ado).
Set-up: key: below the threshold = too weak to quantify, mostly under pKd 3.1 to 4

Row | Binder | pKd
6 | LKVPPEERLI [CRB2, Q5IJ48] | 3.89

These binders were tested against T5, APBA2_2, Q99767 (assay: holdup assay). Details: plain residues with an end cap or a label only (N-terminal biotin on a linker: ado-ado).
Set-up: key: below the threshold = too weak to quantify, mostly under pKd 3.1 to 4

Row | Binder | pKd
7 | LKVPPEERLI [CRB2, Q5IJ48] | below the threshold

Each binder was assayed against Inadl_4, Q8NI35 (assay: holdup assay). Details: plain residues with an end cap or a label only (N-terminal biotin on a linker: ado-ado).
Set-up: key: below the threshold = too weak to quantify, mostly under pKd 3.1 to 4

Sequence of Inadl_4, Q8NI35 (Q8NI35 547-651): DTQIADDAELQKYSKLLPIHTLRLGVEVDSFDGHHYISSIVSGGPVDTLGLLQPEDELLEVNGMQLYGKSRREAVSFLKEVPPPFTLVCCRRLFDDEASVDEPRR

Row | Binder | pKd
8 | LKVPPEERLI [CRB2, Q5IJ48] | below the threshold

These binders were tested against NHERF4_2, Q86UT5 (assay: holdup assay). Details: plain residues with an end cap or a label only (N-terminal biotin on a linker: ado-ado).
Set-up: key: below the threshold = too weak to quantify, mostly under pKd 3.1 to 4

Sequence of NHERF4_2, Q86UT5 (Q86UT5 220-308): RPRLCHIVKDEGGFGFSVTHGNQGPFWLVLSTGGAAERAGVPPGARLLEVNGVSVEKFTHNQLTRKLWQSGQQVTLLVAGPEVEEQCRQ

Row | Binder | pKd
9 | LKVPPEERLI [CRB2, Q5IJ48] | below the threshold

The binders below were run against T6, DFNB31_3, Q9P202 (assay: holdup assay). Details: plain residues with an end cap or a label only (N-terminal biotin on a linker: ado-ado).
Set-up: key: below the threshold = too weak to quantify, mostly under pKd 3.1 to 4

Row | Binder | pKd
10 | LKVPPEERLI [CRB2, Q5IJ48] | below the threshold

The binders below were run against T7, RAPGEF6, Q8TEU7 (assay: holdup assay). Details: plain residues with an end cap or a label only (N-terminal biotin on a linker: ado-ado).
Set-up: key: below the threshold = too weak to quantify, mostly under pKd 3.1 to 4

Row | Binder | pKd
11 | LKVPPEERLI [CRB2, Q5IJ48] | below the threshold

These binders were tested against T8, MPDZ_12, O75970 (assay: holdup assay). Details: plain residues with an end cap or a label only (N-terminal biotin on a linker: ado-ado).
Set-up: key: below the threshold = too weak to quantify, mostly under pKd 3.1 to 4

Row | Binder | pKd
12 | LKVPPEERLI [CRB2, Q5IJ48] | below the threshold

These binders were tested against PICK1, Q9NRD5 (assay: holdup assay). Details: plain residues with an end cap or a label only (N-terminal biotin on a linker: ado-ado).
Set-up: key: below the threshold = too weak to quantify, mostly under pKd 3.1 to 4

Sequence of PICK1, Q9NRD5 (Q9NRD5 17-115): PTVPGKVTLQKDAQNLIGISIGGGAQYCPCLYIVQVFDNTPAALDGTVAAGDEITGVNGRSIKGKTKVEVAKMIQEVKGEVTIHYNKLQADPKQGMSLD

Row | Binder | pKd
13 | LKVPPEERLI [CRB2, Q5IJ48] | below the threshold

The binders below were run against T9, LNX2_2, Q8N448 (assay: holdup assay). Details: plain residues with an end cap or a label only (N-terminal biotin on a linker: ado-ado).
Set-up: key: below the threshold = too weak to quantify, mostly under pKd 3.1 to 4

Row | Binder | pKd
14 | LKVPPEERLI [CRB2, Q5IJ48] | 3.72

Each binder was assayed against T10, SNTG1, Q9NSN8 (assay: holdup assay). Details: plain residues with an end cap or a label only (N-terminal biotin on a linker: ado-ado).
Set-up: key: below the threshold = too weak to quantify, mostly under pKd 3.1 to 4

Row | Binder | pKd
15 | LKVPPEERLI [CRB2, Q5IJ48] | below the threshold

What follows are binders tested against MAGI2_6, Q86UL8 (assay: holdup assay). Details: plain residues with an end cap or a label only (N-terminal biotin on a linker: ado-ado).
Set-up: key: below the threshold = too weak to quantify, mostly under pKd 3.1 to 4

Sequence of MAGI2_6, Q86UL8 (Q86UL8 1141-1229): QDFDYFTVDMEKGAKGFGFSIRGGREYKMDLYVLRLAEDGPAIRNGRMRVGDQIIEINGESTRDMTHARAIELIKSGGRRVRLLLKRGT

Row | Binder | pKd
16 | LKVPPEERLI [CRB2, Q5IJ48] | below the threshold

The binders below were run against T11, SNTB1, Q13884 (assay: holdup assay). Details: plain residues with an end cap or a label only (N-terminal biotin on a linker: ado-ado).
Set-up: key: below the threshold = too weak to quantify, mostly under pKd 3.1 to 4

Row | Binder | pKd
17 | LKVPPEERLI [CRB2, Q5IJ48] | below the threshold

These binders were tested against PTPN3, P26045 (assay: holdup assay). Details: plain residues with an end cap or a label only (N-terminal biotin on a linker: ado-ado).
Set-up: key: below the threshold = too weak to quantify, mostly under pKd 3.1 to 4

Sequence of PTPN3, P26045 (P26045 505-587): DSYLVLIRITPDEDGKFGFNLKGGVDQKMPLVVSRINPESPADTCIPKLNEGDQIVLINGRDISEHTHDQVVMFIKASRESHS

Row | Binder | pKd
18 | LKVPPEERLI [CRB2, Q5IJ48] | below the threshold

Each binder was assayed against GIPC2, Q8TF65 (assay: holdup assay). Details: plain residues with an end cap or a label only (N-terminal biotin on a linker: ado-ado).
Set-up: key: below the threshold = too weak to quantify, mostly under pKd 3.1 to 4

Sequence of GIPC2, Q8TF65 (Q8TF65 112-203): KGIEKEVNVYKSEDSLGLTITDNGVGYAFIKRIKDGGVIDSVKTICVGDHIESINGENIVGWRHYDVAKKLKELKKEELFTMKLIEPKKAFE

Row | Binder | pKd
19 | LKVPPEERLI [CRB2, Q5IJ48] | below the threshold

These binders were tested against SCRIB_1, Q14160 (assay: holdup assay). Details: plain residues with an end cap or a label only (N-terminal biotin on a linker: ado-ado).
Set-up: key: below the threshold = too weak to quantify, mostly under pKd 3.1 to 4

Sequence of SCRIB_1, Q14160 (Q14160 718-814): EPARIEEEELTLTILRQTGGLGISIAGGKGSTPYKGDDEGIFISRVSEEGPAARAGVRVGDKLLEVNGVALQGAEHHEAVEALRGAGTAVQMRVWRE

Row | Binder | pKd
20 | LKVPPEERLI [CRB2, Q5IJ48] | below the threshold

The binders below were run against SNX27, Q96L92 (assay: holdup assay). Details: plain residues with an end cap or a label only (N-terminal biotin on a linker: ado-ado).
Set-up: key: below the threshold = too weak to quantify, mostly under pKd 3.1 to 4

Row | Binder | pKd
21 | LKVPPEERLI [CRB2, Q5IJ48] | below the threshold

These binders were tested against FRMPD4, Q14CM0 (assay: holdup assay). Details: plain residues with an end cap or a label only (N-terminal biotin on a linker: ado-ado).
Set-up: key: below the threshold = too weak to quantify, mostly under pKd 3.1 to 4

Sequence of FRMPD4, Q14CM0 (Q14CM0 67-160): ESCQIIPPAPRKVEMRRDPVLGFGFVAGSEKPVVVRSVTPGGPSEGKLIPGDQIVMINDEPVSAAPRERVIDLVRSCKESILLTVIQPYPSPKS

Row | Binder | pKd
22 | LKVPPEERLI [CRB2, Q5IJ48] | below the threshold

The binders below were run against T12, DFNB31_2, Q9P202 (assay: holdup assay). Details: plain residues with an end cap or a label only (N-terminal biotin on a linker: ado-ado).
Set-up: key: below the threshold = too weak to quantify, mostly under pKd 3.1 to 4

Row | Binder | pKd
23 | LKVPPEERLI [CRB2, Q5IJ48] | below the threshold

The binders below were run against T13, CARD11, Q9BXL7 (assay: holdup assay). Details: plain residues with an end cap or a label only (N-terminal biotin on a linker: ado-ado).
Set-up: key: below the threshold = too weak to quantify, mostly under pKd 3.1 to 4

Row | Binder | pKd
24 | LKVPPEERLI [CRB2, Q5IJ48] | below the threshold

These binders were tested against IL16_3, Q14005 (assay: holdup assay). Details: plain residues with an end cap or a label only (N-terminal biotin on a linker: ado-ado).
Set-up: key: below the threshold = too weak to quantify, mostly under pKd 3.1 to 4

Sequence of IL16_3, Q14005 (Q14005 1107-1207): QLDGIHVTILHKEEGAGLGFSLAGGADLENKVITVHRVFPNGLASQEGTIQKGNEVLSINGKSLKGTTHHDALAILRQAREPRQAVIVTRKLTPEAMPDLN

Row | Binder | pKd
25 | LKVPPEERLI [CRB2, Q5IJ48] | below the threshold
